Where “and” joins values, the source holds several entries; their conditions need not be identical. Identical values can stand only once.
Assays:
[1] = target: KfrA of plasmid RA3, intact, fused to a CyaA fragment (BACTH) (plasmid RA3 (IncU), isolated from Aeromonas spp.); test: two-hybrid; bacterial adenylate cyclase two-hybrid (BACTH) in E. coli BTH101 cyaA; CyaA T18 and T25 fusions; MacConkey plates with 1% maltose and β-galactosidase assays in liquid cultures
[2] = target: KorB of plasmid RA3 fused to a CyaA fragment (BACTH) (plasmid RA3 (IncU), isolated from Aeromonas spp.); test: as above
[3] = target: IncC of plasmid RA3 fused to CyaA T25 (BACTH) (plasmid RA3 (IncU), isolated from Aeromonas spp.); test: as above
[4] = target: His6-KfrCRA3 labelled with RED-Tris-NTA (plasmid RA3 (IncU), isolated from Aeromonas spp.); test: MST; labelled His6-KfrC constant at 50 nM, KfrA from 500 nM to 0.0153 nM; 50 mM KPi pH 7.4, 300 mM NaCl, 0.05% Tween 20; measured at 37°C on Monolith NT.115; four independent experiments
[5] = tested on: His6-KfrA WT (plasmid RA3 (IncU; Aeromonas hydrophila in Fig S1/S3)); test: EMSA; conditions: EMSA: 50 mM Tris-HCl pH 8.0, 10 mM MgCl2, 50 mM NaCl, 37 C, 30 min, 10 nM EcoRI-NdeI-digested plasmid DNA (vector fragment as internal competitor), 20 ul …
[6] = tested on: His6-KfrA178-355 (plasmid RA3 (IncU; Aeromonas hydrophila in Fig S1/S3)); test: EMSA; conditions: EMSA: 50 mM Tris-HCl pH 8.0, 10 mM MgCl2, 50 mM NaCl, 37 C, 30 min, 10 nM EcoRI-NdeI-digested plasmid DNA (vector fragment as internal competitor), 20 ul …

In the case of “KfrA of plasmid RA3, intact, fused to a CyaA fragment (BACTH) (natural protein)”, the β-galactosidase activity [1] is reported as 4880 U and 5170 U, the β-galactosidase activity [2] is reported as 1970 U and the β-galactosidase activity [3] is reported as 136 U.
“KfrARA3 with the His6 tag removed (natural protein)” was tested, and the Kd [4] was 0.054 µM.
Work on “KfrC of plasmid RA3, intact, fused to a CyaA fragment (BACTH) (natural protein)” yielded a β-galactosidase activity [2] of 1010 U.
“WT OK (kfrAp), EcoRI-NdeI fragment of pESB2.68” was tested, and the K half ([5]; OK variant series) was 240 nM, the K half ([5]; preparation used with Ala variants) was 180 nM and the K half ([5]; preparation used with deletion variants, preparations ranged 0.18-0.32 uM) was 320 nM. For the same substance, the K half [6] was 1700 nM.
Substance pUC18 vector control fragment has a K half [6] of 1000 nM.
